Source: patent US20220025021A1 (BETH ISRAEL DEACONESS MEDICAL CENTER, published 2022)

Key:
Experiment in all cases: cell-based or functional assay
HIV-1 pseudovirus 263-8 = HIV-1 pseudovirus 263-8 (HIV-1)
[1] = target: HIV-1 pseudovirus SC05.8C11.2344 (HIV-1)
[2] = target: HIV-1 pseudovirus X1193_c1 (HIV-1)
[3] = target: HIV-1 pseudovirus Ce1176_A3 (HIV-1)
[4] = target: HIV-1 pseudovirus AC10.0.29 (HIV-1)
[5] = target: HIV-1 pseudovirus 6952.v1.c20 (HIV-1)

| Binder | IC50 (neutralization in TZM.bl cells) (HIV-1 pseudovirus 263-8) [µg/mL] | IC80 (neutralization in TZM.bl cells) (HIV-1 pseudovirus 263-8) [µg/mL] | IC50 (neutralization in TZM.bl cells) [1] [µg/mL] | IC80 (neutralization in TZM.bl cells) [1] [µg/mL] | IC50 (neutralization in TZM.bl cells) [2] [µg/mL] | IC80 (neutralization in TZM.bl cells) [2] [µg/mL] | IC50 (neutralization in TZM.bl cells) [3] [µg/mL] | IC80 (neutralization in TZM.bl cells) [3] [µg/mL] | IC50 (neutralization in TZM.bl cells) [4] [µg/mL] | IC80 (neutralization in TZM.bl cells) [4] [µg/mL] | IC50 (neutralization in TZM.bl cells) [5] [µg/mL] | IC80 (neutralization in TZM.bl cells) [5] [µg/mL] |
| --- | --- | --- | --- | --- | --- | --- | --- | --- | --- | --- | --- | --- |
| MS-78 (antibody, V domains shown) VH: QVQLVQSGPEVRKPGTSVKVSCKAPGNTLKTYDLHWVRSVPGQGLEWMGWISHEGDKKVIVERFKAKVTIDWDRSTNTAYLQLSGLTSGDTAVYYCAKGSKHRLRDYALYDDDGALNWAVDVDYLSNLEFWGQGTAVTVSS VL: DFVLTQSPHSLSVTPGESASISCKSSHSLIHGDRNNYLAWYVQKPGRSPQLLIYLASSRASGVPDRFSGSGSDKDFTLKISRVETEDVGTYYCMQGRESPWTFGQGTKVDIKR | 0.014 | 0.053 | 0.658 | 2.26 | 0.126 | 0.452 | 0.047 | 0.837 | 0.044 | 0.225 | 0.342 | > 25 |
| MS-80 (antibody, V domains shown) VH: QVQLVQSGPEVRKPGTSVKVSCKAPGNTLKTYDLHWVRSVPGQGLQWMGWISHEGDKKVIVERFKAKVTIDRDRSTNTAYLQLSGLTSGDTAVYYCAKGSKHRLRDYALYDDDGALNWAVDVDYLSNLEFWGQGTAVTVSS VL: DFVLTQSPHSLSVTPGESASISCKSSHSLIHGDRNNYLAWYVQKPGRSPQLLIYLASSRASGVPDRFSGSGSDKDFTLKISRVETEDVGTYYCMQGRESPWTFGQGTKVDIKR | 0.033 | 0.173 | 0.898 | 3.15 | 0.137 | 0.607 | 1.11 | > 25 | 0.054 | 0.28 | > 25 | > 25 |
| MS-83 (antibody, V domains shown) VH: QVQLVQSGPEVRKPGTSVKVSCKAPGNTLKTYDLHWVRSVPGQGLQWMGWISHEGDKKVIVERFKAKVTIDWDRSTNTAYLQLSGLTSGDTAVYYCAKGSKHRLRDYALYDDEGALNWAVDVDYLSNLEFWGQGTAVTVSS VL: DFVLTQSPHSLSVTPGESASISCKSSHSLIHGDRNNYLAWYVQKPGRSPQLLIYLASSRASGVPDRFSGSGSDKDFTLKISRVETEDVGTYYCMQGRESPWTFGQGTKVDIKR | 0.007 | 0.05 | 0.381 | 1.88 | 0.061 | 0.308 | 0.029 | 0.405 | 0.038 | 0.259 | 0.126 | 3.09 |
| MS-84 (antibody, V domains shown) VH: QVQLVQSGPEVRKPGTSVKVSCKAPGNTLKTYDLHWVRSVPGQGLQWMGWISHEGDKKVIVERFKAKVTIDWDRSTNTAYLQLSGLRSGDTAVYYCAKGSKHRLRDYALYDDDGALNWAVDVDYLSNLEFWGQGTAVTVSS VL: DFVLTQSPLSLPVTPGEPASISCKSSHSLIHGDRNNYLAWYVQKPGQSPQLLIYLASSRASGVPDRFSGSGSDKDFTLKISRVEAEDVGVYYCMQGRESPWTFGQGTKVDIKR | 0.006 | 0.03 | 0.481 | 1.74 | 0.058 | 0.285 | 0.018 | 0.567 | 0.052 | 0.257 | 0.237 | 18.2 |
| MS-82 (antibody, V domains shown) VH: QVQLVQSGPEVRKPGTSVKVSCKAPGNTLKTYDLHWVRSVPGQGLQWMGWISHEGDKKVIVERFKAKVTIDWDRSTNTAYLQLSGLRSGDTAVYYCAKGSKHRLRDYALYDDDGALNWAVDVDYLSNLEFWGQGTAVTVSS VL: DFVLTQSPHSLSVTPGESASISCKSSHSLIHGDRNNYLAWYVQKPGRSPQLLIYLASSRASGVPDRFSGSGSDKDFTLKISRVETEDVGTYYCMQGRESPWTFGQGTKVDIKR | 0.011 | 0.033 | 0.502 | 1.8 | 0.084 | 0.411 | 0.023 | 0.635 | 0.05 | 0.267 | 0.212 | 23 |
| MS-79 (antibody, V domains shown) VH: QVQLVQSGPEVRKPGTSVKVSCKAPGNTLKTYDLHWVRSVPGQGLQWMGWISHEGDKKVIVERFKAKVTITWDRSTNTAYLQLSGLTSGDTAVYYCAKGSKHRLRDYALYDDDGALNWAVDVDYLSNLEFWGQGTAVTVSS VL: DFVLTQSPHSLSVTPGESASISCKSSHSLIHGDRNNYLAWYVQKPGRSPQLLIYLASSRASGVPDRFSGSGSDKDFTLKISRVETEDVGTYYCMQGRESPWTFGQGTKVDIKR | 0.018 | 0.067 | 0.593 | 1.97 | 0.109 | 0.365 | 0.473 | 9.05 | 0.056 | 0.404 | 13.2 | > 25 |
| MS-81 (antibody, V domains shown) VH: QVQLVQSGPEVRKPGTSVKVSCKAPGNTLKTYDLHWVRSVPGQGLQWMGWISHEGDKKVIVERFKAKVTIDWDRSTNTAYLELSGLTSGDTAVYYCAKGSKHRLRDYALYDDDGALNWAVDVDYLSNLEFWGQGTAVTVSS VL: DFVLTQSPHSLSVTPGESASISCKSSHSLIHGDRNNYLAWYVQKPGRSPQLLIYLASSRASGVPDRFSGSGSDKDFTLKISRVETEDVGTYYCMQGRESPWTFGQGTKVDIKR | 0.013 | 0.037 | 0.537 | 2.01 | 0.113 | 0.512 | 0.044 | 0.646 | 0.044 | 0.324 | 0.228 | > 25 |
| MS-85 (antibody, V domains shown) VH: QVQLVQSGPEVRKPGTSVKVSCKAPGNTLKTYDLHWVRSVPGQGLQWMGWISHEGDKKVIVERFKAKVTIDWDRSTNTAYLQLSGLTSGDTAVYYCAKGSKHRLRDYALYDDDGALNWAVDVDYLSNLEFWGQGTAVTVSS VL: DIVLTQSPHSLSVTPGESASISCKSSHSLIHGDRNNYLAWYVQKPGRSPQLLIYLASSRASGVPDRFSGSGSGTDFTLKISRVETEDVGTYYCMQGRESPWTFGQGTKVDIKR | 0.011 | 0.043 | 0.425 | 1.49 | 0.068 | 0.507 | 0.073 | 1.72 | 0.044 | 0.242 | 0.393 | > 25 |
| MS-86 (antibody) VH: not shown VL: DFVLTQSPHSLSVTPGESASISCKSSHSLIHGDRNNYLAWYVQKPGRSPQLLIYLASSRASGVPDRFSGSGSDKDFTLKISRVETEDVGTYYCMQGRESPWTFGQGTKVDIKRTVAAPSVFIFPPSDEQLKSGTASVVCLLNNFYPREAKVQWKVDNALQSGNSQESVTEQDSKDSTYSLSSTLTLSKADYEKHKVYACEVTHQGLSSPVTKSFNRGEC | 0.009 | 0.05 | 1.62 | 5.39 | 0.167 | 0.371 | 0.366 | 4.25 | 0.107 | 0.741 | 2.55 | > 25 |
